Data set [1] deals with the molecule itself. Description: SDS-PAGE of the purified fragment (self-association). The method, then: As the ATM kinase domain interacts stably with the domain containing the autophosphorylation site, it was determined whether a truncated recombinant ATM molecule that included the phosphorylation and kinase domains would fold properly and have kinase activity. A galactose-inducible pYES plasmid containing 6×-His-FLAG®-tagged ATM¹⁹²³⁻³⁰⁵⁶ was transfected into Saccharomyces cerevisiae and a soluble ATM fragment was recovered. The polypeptide was purified by anti-FLAG® affinity chromatography.

Data set [2] has as its target T1, 6×-Histidine (6×-His) fusion protein containing the C-terminal kinase domain of ATM, residues 2712-3056 (Homo sapiens (Human), UniProt Q13315 2712-3056).
T1 construct: also called ATM kinase domain; not shown: 6×-His tag from pET28
T1 sequence: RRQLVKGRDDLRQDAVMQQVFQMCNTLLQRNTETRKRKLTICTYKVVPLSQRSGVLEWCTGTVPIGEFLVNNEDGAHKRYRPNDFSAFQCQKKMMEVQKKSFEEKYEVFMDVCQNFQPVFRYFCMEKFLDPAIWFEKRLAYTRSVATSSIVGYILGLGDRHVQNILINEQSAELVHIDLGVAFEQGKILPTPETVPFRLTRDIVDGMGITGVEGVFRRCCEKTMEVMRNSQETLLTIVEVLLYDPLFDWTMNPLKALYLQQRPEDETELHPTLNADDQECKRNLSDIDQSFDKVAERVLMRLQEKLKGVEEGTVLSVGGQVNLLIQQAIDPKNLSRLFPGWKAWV
Description: co-expression in E. coli; kinase domain remained insoluble. From the text: A further aspect of the invention provides a method of producing soluble ATM kinase by contacting the kinase domain of ATM with a fragment of ATM kinase containing Ser¹⁹⁸¹. […] Although the kinase domain was insoluble in bacteria when co-transfected with GST alone or a GST fusion with the ATM target peptide p53 (residues 1-101), a significant percentage was stabilized and solubilized in the presence of the GST-ATM¹⁹⁶¹⁻²⁰⁴⁶ fusion protein. The kinase domain was also solubilized in the presence of the GST-ATM¹⁹⁶¹⁻²⁰⁴⁶ fusion protein containing Ser¹⁹⁸¹→Ala, but remained insoluble in the presence of phosphorylation-mimic fusion peptides, Ser¹⁹⁸¹→Asp and Ser¹⁹⁸¹→Glu. Furthermore, the soluble kinase domain co-purified on glutathione-agarose with the GST-ATM¹⁹⁶¹⁻²⁰⁴⁶ fusion proteins containing wild-type sequence or Ser¹⁹⁸¹→Ala.

B1: 6×-His-FLAG®-tagged ATM^1923-3056 (enzyme)
chain: SSGTIFNDAFWLDLNYLEVAKVAQSCAAHFTALLYAEIYADKKSMDDQEKRSLAFEEGSQSTTISSLSEKSKEETGISLQDLLLEIYRSIGEPDSLYGCGGGKMLQPITRLRTYEHEAMWGKALVTYDLETAIPSSTRQAGIIQALQNLGLCHILSVYLKGLDYENKDWCPELEELHYQAAWRNMQWDHCTSVSKEVEGTSYHESLYNALQSLRDREFSTFYESLKYARVKEVEEMCKRSLESVYSLYPTLSRLQAIGELESIGELFSRSVTHRQLSEVYIKWQKHSQLLKDSDFSFQEPIMALRTVILEILMEKEMDNSQRECIKDILTKHLVELSILARTFKNTQLPERAIFQIKQYNSVSCGVSEWQLEEAQVFWAKKEQSLALSILKQMIKKLDASCAANNPSLKLTYTECLRVCGNWLAETCLENPAVIMQTYLEKAVEVAGNYDGESSDELRNGKMKAFLSLARFSDTQYQRIENYMKSSEFENKQALLKRAKEEVGLLREHKIQTNRYTVKVQRELELDELALRALKEDRKRFLCKAVENYINCLLSGEEHDMWVFRLCSLWLENSGVSEVNGMMKRDGMKIPTYKFLPLMYQLAARMGTKMMGGLGFHEVLNNLISRISMDHPHHTLFIILALANANRDEFLTKPEVARRSRITKNVPKQSSQLDEDRTEAANRIICTIRSRRPQMVRSVEALCDAYIILANLDATQWKTQRKGINIPADQPITKLKNLEDVVVPTMEIKVDHTGEYGNLVTIQSFKAEFRLAGGVNLPKIIDCVGSDGKERRQLVKGRDDLRQDAVMQQVFQMCNTLLQRNTETRKRKLTICTYKVVPLSQRSGVLEWCTGTVPIGEFLVNNEDGAHKRYRPNDFSAFQCQKKMMEVQKKSFEEKYEVFMDVCQNFQPVFRYFCMEKFLDPAIWFEKRLAYTRSVATSSIVGYILGLGDRHVQNILINEQSAELVHIDLGVAFEQGKILPTPETVPFRLTRDIVDGMGITGVEGVFRRCCEKTMEVMRNSQETLLTIVEVLLYDPLFDWTMNPLKALYLQQRPEDETELHPTLNADDQECKRNLSDIDQSFDKVAERVLMRLQEKLKGVEEGTVLSVGGQVNLLIQQAIDPKNLSRLFPGWKAWV
notes: Expressed in S. cerevisiae from pYES2; also called soluble ATM fragment; truncated recombinant ATM; not shown: N-terminal 6×-His and FLAG tags
On to B1, for which the binding result in data set [1] was “binds”.

B2: GST-ATM^1961-2046 phosphorylation-mimic fusion peptide Ser^1981→Asp (other)
chain: YADKKSMDDQEKRSLAFEEGDQSTTISSLSEKSKEETGISLQDLLLEIYRSIGEPDSLYGCGGGKMLQPITRLRTYEHEAMWGKAL
notes: not shown: glutathione-S-transferase (GST) as encoded by pGEX-4T-1
In the case of B2, in data set [2], the binding result is “no binding”.

B3: GST-ATM^1961-2046 phosphorylation-mimic fusion peptide Ser^1981→Glu (other)
chain: YADKKSMDDQEKRSLAFEEGEQSTTISSLSEKSKEETGISLQDLLLEIYRSIGEPDSLYGCGGGKMLQPITRLRTYEHEAMWGKAL
notes: as for B2
On to B3, for which the binding result in data set [2] is recorded as “no binding”.

Values taken from US20030077661A1 (ST JUDE CHILDREN S RESEARCH HOSPITAL, published 2003).
